Laboratory results taken from the supplement of paper PMC10567573.

B1: KLHDC10 (parent)
chain: PSLLELAWEKLLAAFPNLANLSRT
B2: RHOBTB3 (parent)
chain: VSHVFMLLFNVKSPTDIQDSSIIR

Variants of: B1
Assay: protein stability index of a GFP-peptide fusion (GPS, HEK-293T) (PSI 1-6); higher = more stable
Settings: c terminus: a fixed tail appended
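Also: lentivirally expressed fusions sorted by FACS into six bins by GFP to DsRed ratio, PSI derived from sequencing read proportions per bin multiplied by bin number.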

Protein stability index, by site and new letter:
L12: A 2.52; E 2.66
L6: P 1.86; Y 1.95; D 2.2; S 2.28
K10: E 1.57; M 2; V 2.07
T24: R 2.6; K 2.25; A 2.34; H 2.56
E9: C 1.5; T 2.39
P16: N 2.03; L 1.78; W 2.35
F15: C 1.78
N17: E 1.62; I 2.01
L3: G 1.56
A13: W 1.64; P 1.86; F 1.46
A14: Q 2.05; R 1.87; S 2.86
P1: S 1.85
W8: G 2.78; I 1.87; C 1.85
A19: G 2.17; M 2.1; I 2.32
S22: N 2.23; T 2.3; G 1.9; A 2.81
A7: C 2.23; H 1.33; F 1.86
R23: W 2.34
S2: F 2.41
L4: H 2.88; V 2.26
L21: D 2.33
E5: D 2.88; S 3.15; V 1.71; R 2.29; W 1.93
L18: F 2.52
L11: R 2.07

Variants of: B2
Assay: as above
Settings: c terminus: a fixed tail appended

Protein stability index: each site, then its substitutions
T15: W 1.62; V 3.4; F 3.38; C 3.31; G 2.76; R 4.51; S 5.07; K 5.21; N 3.26; L 2.3; I 2.23; Y 2.63
I23: A 4.9; L 5.03; G 2.5; Q 2.79; F 4.66; M 4.19; Y 3.9; W 2.86; H 2.28; S 2.33; P 1.33; T 2.43; E 1.89; D 2.83; V 2.75; K 1.4; R 2.85; N 4.01
S20: K 1.33; H 2.49; Q 3.34; R 1.66; W 3.16; T 2.05; D 2.91; F 2.79; P 3.04; I 2.98; Y 2.66; M 3.1; A 2.66
N10: H 3.06; G 2.24; I 2.19; T 2.15; C 1.43; D 3.9; W 3.77; A 2.47; L 3.27; V 2.13; P 2.3
P14: A 3.26; H 2.54; V 3.52; Y 3.96; F 3.75; L 2.04; D 2.34; E 2.14; S 3.49; M 1.72; K 2.58; I 3.62; W 3.15; C 5.86; G 4.07
R24: V 3.67; N 3.13; E 2.74; F 1.82; T 3.31; L 2.66; W 4.43; K 3.56; Q 4.67; Y 2.58; G 3.07; S 3.05; H 3.13
D19: P 2.41; R 3.06; H 3.04; K 2.3; E 3.13; Q 2.96; F 2.28; I 3.28; T 3.05; M 4.57; A 3.48; N 2.96; S 2.93; L 1.89
I22: D 2.8; R 1.6; N 1.66; W 2.17; Y 2.62; L 2.98; P 3.69; C 2.08; Q 2.63; F 2.15; T 2.35; V 3.37
S21: I 2.74; K 1.84; H 2.35; G 3.46; M 2.9; F 3.07; Y 3.45; W 3.54; V 2.27; T 3.42; Q 4.13; C 3.76
I17: C 3.7; H 2.01; T 2.71; E 1.9; R 3.58; Q 1.58; Y 1.66; W 3.63; V 2.81; L 2.92; N 2.1; P 2.88; S 1.18; K 1.51
Q18: K 2.82; P 3.69; E 2.79; C 2.77; D 4.62; N 1.19; F 2.75; W 3.42; T 2.57; Y 3.89; S 3.12; A 3.32; V 3.53; H 2.48
V11: M 3.81; C 3.03; F 2.74; S 3.03; P 2.94; G 3.8; D 1.23; W 2.83; I 3.24; Q 1.82; E 2.08; N 3.13; R 3.03; L 4.23; H 3.04
L7: N 2.25; P 2.18; W 2.9; M 2.37; H 3.82; T 2.73; Y 2.77; E 2.13; D 1.93; V 2.34; S 1.72; F 3.17; I 2.99; K 1.59; C 2.94; Q 2.23; R 2.4; A 1.74; G 2.25
F9: Y 4.01; W 3.94; E 2.21; I 2.62; K 2.21; P 1.55; R 2.74; Q 1.5; L 3.21; S 2.61; G 1.69; A 1.92; N 1.93; D 1.45; T 1.57; C 2.44; H 1.63
F5: L 4.65; P 2.04; I 2.31; N 1.97; K 1.84; V 3.38; M 1.44; T 1.71; S 1.95; R 1.41; Q 1.95; Y 3.79
D16: F 1.93; R 3.86; L 2.16; C 2.82; Y 3.61; E 2.96; A 2.52; N 3.77; S 2.63; T 2.99; M 3.75; H 3.02
S13: M 3.52; F 3.32; H 2.37; L 3.37; T 3.82; D 2.36; E 2.99; C 4.63; K 2.17; I 4.29; Y 2.31
L8: F 2.22; E 1.36; H 2.23; M 2.95; P 2.34; N 2.46; G 2.55; Q 2.75; D 1.81; K 2.71; S 2.78; C 2.23
K12: E 1.8; A 5.33; Q 2.78; C 1.55; L 1.46; D 2.5; T 1.98; M 3.63; N 1.99; G 3.36; Y 1.81; I 3.28; V 4.26; W 4.11; R 3.32; H 2.15
M6: A 3; K 1.42; T 2.99; R 1.77; E 2.43; C 1.98; P 1.59; G 2.29; N 2.98; Q 2.24; I 2.83; S 2.2; F 3.03; V 3.62; H 2.87; D 2.26; L 3.66; Y 3.18
